# Results published in US20250361322A1 (ICONIC THERAPEUTICS, published 2025).
# Changes are numbered by the printed parent chain.
# B1: anti-TF antibody 29E (antibody, human IgG1, V domains shown)
# VH: QVQLVESGGGVVQPGRSLRLSCAASGFTFRSYGMHWVRQAPGKGLEWVAVITYDGINKYYADSVEGRFTISRDNSKNTLYLQMNSLRAEDTAVYYCARDGVYYGVYDYWGQGTLVTVSS
# VL: not shown
# B2: 25A5 (antibody, human IgG1, V domains shown)
# VH: QVQLVQSGAEVKKPGASVKVSCKASGYTFDVYGISWVRQAPGQGLEWMGWIAPYSGNTNYAQKLQGRVTMTTDTSTSTAYMELRSLRSDDTAVYYCARDAGTYSPFGYGMDVWGQGTTVTVSS
# VL: DIQMTQSPSTLSASVGDRVTITCRASESISNWLAWYQQKPGKAPKLLIYKAYSLEYGVPSRFSGSGSGTEFTLTISSLQPDDFATYYCQQFQKLPPFTFGGGTKVEIK
# B3: 5G9 (humanized TF8-5G9, CNTO 860) (antibody, V domains shown)
# VH: QVQLVESGGGVVQPGRSLRLSCKASGFNIKDYYMHWVRQAPGKGLEWIGLIDPENGNTIYDPKFQGRFTISADNSKNTLFLQMDSLRPEDTAVYYCARDNSYYFDYWGQGTPVTVSS
# VL: DIQMTQSPSSLSASVGDRVTITCKASQDIRKYLNWYQQKPGKAPKLLIYYATSLADGVPSRFSGSGSGTDYTFTISSLQPEDIATYYCLQHGESPYTFGQGTKLEIT
# B4: anti-TF antibody 1F (antibody, human IgG1, V domains shown)
# VH: EVQLLESGGGLVQPGGSLRLSCAASGFTFSDYAMGWVRQAPGKGLEWVSTISGSGGLTYYADSVKGRFTISRDNSKNTLYLQMNSLRAEDTAVYYCAKAPYGYYMDVWGKGTTVTVSS
# VL: not shown
# B5: tisotumab vedotin (TF-011) ADC (antibody, V domains shown)
# VH: EVQLLESGGGLVQPGGSLRLSCAASGFTFSNYAMSWVRQAPGKGLEWVSSISGSGDYTYYTDSVKGRFTISRDNSKNTLYLQMNSLRAEDTAVYYCARSPWGYYLDSWGQGTLVTVSS
# VL: DIQMTQSPPSLSASAGDRVTITCRASQGISSRLAWYQQKPEKAPKSLIYAASSLQSGVPSRFSGSGSGTDFTLTISSLQPEDFATYYCQQYNSYPYTFGQGTKLEIK
# modifications: MC-vc-PAB-MMAE on cysteines of the partially reduced antibody (chain and positions not stated), DAR 3-4
# B6: anti-TF antibody 39A (antibody, human IgG1, V domains shown)
# VH: QVQLVQSGAEVKKPGSSVKVSCKASGGTFSSNAIGWVRQAPGQGLEWMGSIIPIIGFANYAQKFQGRVTITADESTSTAYMELSSLRSEDTAVYYCARDSGYYYGASSFGMDVWGQGTTVTVSS
# VL: EIVMTQSPATLSVSPGERATLSCRASQSVSSNLAWYQQKPGQAPRLLIYGASTRATGIPARFSGSGSGTEFTLTISSLQSEDFAVYYCEQYNNLPLTFGGGTKVEIK
# B7: anti-TF antibody 54E (antibody, human IgG1, V domains shown)
# VH: QVQLVQSGAEVKKPGASVKVSCKASGYTFANYYMHWVRQAPGQGLEWMGIINPSGGITVYAQKFQGRVTMTRDTSTSTVYMELSSLRSEDTAVYYCARGGSKVAALAFDIWGQGTMVTVSS
# VL: DIQMTQSPSSLSASVGDRVTITCQASQDISNSLNWYQQKPGKAPKLLIYDASNLETGVPSRFSGSRSGTDFTFTISSLQPEDIATYYCQQYNFHPLTFGGGTKVEIK
# B8: 43Ea-vc-MMAE (antibody, IgG1, V domains shown)
# VH: QVQLQESGPGLVKPSQTLSLTCTVSGGSISSGQYWSWIRQHPGKGLEWIGEIYYSGSTRYNPSLKSRVTISVDTSKNQFSLKLSSVTAADTAVYYCARDTPYYYDGGYYYYMDVWGKGTTVTVSS
# VL: EIVLTQSPGTLSLSPGERATLSCRASQSVSSSYLAWYQQKPGQAPRLLIYGASSRATGIPDRFSGSGSGTDFTLTISRLEPEDFAVYYCQQVGVVPYTFGGGTKVEIK
# modifications: MC-vc-PAB-MMAE on cysteines of the partially reduced antibody (chain and positions not stated), DAR 3-4
# B9: anti-TF antibody 43D7 conjugated to MC-vc-PAB-MMAE (antibody, IgG1, V domains shown)
# VH: QVQLQQWGAGLLKPSETLSLTCAVYGGSLSGYYWSWIRQPPGKGLEWIGEIGASGSTRYNPSLKSRVTISVDTSKNQFSLKLSSVTAADTAVYYCARDTPYYYEGGYYYYMDVWGKGTTVTVSS
# VL: B8 VL with Q27D, S30D, S53F, T57N, V92A
# modifications: MC-vc-PAB-MMAE on cysteines of the partially reduced antibody (chain and positions not stated), DAR 3-4
# B10: anti-TF antibody 43B1 conjugated to MC-vc-PAB-MMAE (antibody, IgG1, V domains shown)
# VH: B8 VH with T100A, D105G
# VL: B8 VL with Q27E, S30D, S54T, A56Q, V92A
# modifications: MC-vc-PAB-MMAE on cysteines of the partially reduced antibody (chain and positions not stated), DAR 3-4
# Assays:
# Test in all cases: cell-based or functional assay
# Relipidated TF [1] = target: Relipidated TF
# [2] = target: T1, human Tissue Factor (hTF) (human, UniProt P13726 33-295)
# Relipidated TF [3] = target: Relipidated TF (UniProt P13726 33-295, limits assumed)
# human Tissue Factor (TF) = human Tissue Factor (TF) (human, UniProt P13726 33-295)
# [4] = target: T1, human Tissue Factor (hTF); remark: listed apart in the source
Binder,"% ETP, TGA with 10 min antibody pre-incubation, 10 nM antibody (Relipidated TF [1])","% Peak IIa, TGA with 10 min antibody pre-incubation, 10 nM antibody (Relipidated TF [1])","% Peak IIa, TGA with 10 min antibody pre-incubation, 50 nM antibody (Relipidated TF [1])","% Peak IIa, TGA with 10 min antibody pre-incubation, 100 nM antibody (Relipidated TF [1])","% ttPeak, TGA with 10 min antibody pre-incubation, 10 nM antibody (Relipidated TF [1])","% ttPeak, TGA with 10 min antibody pre-incubation, 50 nM antibody (Relipidated TF [1])","% ttPeak, TGA with 10 min antibody pre-incubation, 100 nM antibody (Relipidated TF [1])","ETP, TGA with 10 min antibody pre-incubation, 10 nM antibody (Relipidated TF [1])","Lag Time, TGA with 10 min antibody pre-incubation, 10 nM antibody (Relipidated TF [1])","Lag Time, TGA with 10 min antibody pre-incubation, 50 nM antibody (Relipidated TF [1])","Lag Time, TGA with 10 min antibody pre-incubation, 100 nM antibody (Relipidated TF [1])","Peak IIa, TGA with 10 min antibody pre-incubation, 10 nM antibody (Relipidated TF [1])","Peak IIa, TGA with 10 min antibody pre-incubation, 50 nM antibody (Relipidated TF [1])","Peak IIa, TGA with 10 min antibody pre-incubation, 100 nM antibody (Relipidated TF [1])","ttPeak, TGA with 10 min antibody pre-incubation, 10 nM antibody (Relipidated TF [1])","ttPeak, TGA with 10 min antibody pre-incubation, 50 nM antibody (Relipidated TF [1])","ttPeak, TGA with 10 min antibody pre-incubation, 100 nM antibody (Relipidated TF [1])","IC50, cell viability of A431 cells, Secondary ADC (antibody with anti-human Fc Fab:MMAF), Continuous (FIG. 18B) [2]","IC50, cell viability of A431 cells, Primary ADC, Continuous (FIG. 20A) [2]","IC50, cell viability of A431 cells, Primary ADC, 4 hr, followed by washout (FIG. 20B) [4]",further results
B1,77%,36%,30%,28%,159%,237%,247%,1410 nM·min,9.4 min,14.1 min,14.7 min,98 nM,83 nM,76 nM,18.1 min,23.6 min,24.3 min,100 pM,–,–,"% ETP, TGA with 10 min antibody pre-incubation, 50 nM antibody (Relipidated TF [1]): 72%; % ETP, TGA with 10 min antibody pre-incubation, 100 nM antibody (Relipidated TF [1]): 66%; ETP, TGA with 10 min antibody pre-incubation, 50 nM antibody (Relipidated TF [1]): 1300 nM·min; ETP, TGA with 10 min antibody pre-incubation, 100 nM antibody (Relipidated TF [1]): 1200 nM·min"
B2,–,–,–,–,–,–,–,–,–,–,–,–,–,–,–,–,–,–,–,–,% ETP at 10 nM Ab (TGA without antibody pre-incubation) (Relipidated TF [3]): 99%; % Peak IIa at 10 nM Ab (TGA without antibody pre-incubation) (Relipidated TF [3]): 98%; % Peak IIa at 50 nM Ab (TGA without antibody pre-incubation) (Relipidated TF [3]): 98%; % Peak IIa at 100 nM Ab (TGA without antibody pre-incubation) (Relipidated TF [3]): 98%; ETP at 10 nM Ab (TGA without antibody pre-incubation) (Relipidated TF [3]): 2270 nM·min; ETP at 50 nM Ab (TGA without antibody pre-incubation) (Relipidated TF [3]): 2320 nM·min; ETP at 100 nM Ab (TGA without antibody pre-incubation) (Relipidated TF [3]): 2390 nM·min; Lag Time at 10 nM Ab (TGA without antibody pre-incubation) (Relipidated TF [3]): 4.7 min; Lag Time at 50 nM Ab (TGA without antibody pre-incubation) (Relipidated TF [3]): 4.8 min; Lag Time at 100 nM Ab (TGA without antibody pre-incubation) (Relipidated TF [3]): 5.1 min; Peak IIa at 10 nM Ab (TGA without antibody pre-incubation) (Relipidated TF [3]): 343 nM; Peak IIa at 50 nM Ab (TGA without antibody pre-incubation) (Relipidated TF [3]): 344 nM; Peak IIa at 100 nM Ab (TGA without antibody pre-incubation) (Relipidated TF [3]): 342 nM; ttPeak at 10 nM Ab (TGA without antibody pre-incubation) (Relipidated TF [3]): 8 min; ttPeak at 50 nM Ab (TGA without antibody pre-incubation) (Relipidated TF [3]): 8.1 min; ttPeak at 100 nM Ab (TGA without antibody pre-incubation) (Relipidated TF [3]): 8.5 min
B3,–,–,–,–,–,–,–,–,–,–,–,–,–,–,–,–,–,–,–,–,% FXa at 12.5 nM antibody (human Tissue Factor (TF)): 37%; % FXa at 25 nM antibody (human Tissue Factor (TF)): 33%; % FXa at 50 nM antibody (human Tissue Factor (TF)): 30%; % FXa at 100 nM antibody (human Tissue Factor (TF)): 30%
B4,41%,16%,8%,7%,220%,433%,483%,742 nM·min,13.8 min,26.5 min,29.5 min,44 nM,23 nM,20 nM,22.4 min,37.3 min,40.8 min,70 pM,–,–,–
B5,–,–,–,–,–,–,–,–,–,–,–,–,–,–,–,–,–,–,50 pM,170 pM,–
B6,0%,13%,8%,7%,319%,491%,537%,–,19.6 min,30.7 min,33.6 min,36 nM,22 nM,19 nM,29.3 min,41.4 min,44.6 min,80 pM,–,–,–
B7,83%,43%,16%,13%,96%,303%,–,1520 nM·min,6.5 min,18.3 min,22.3 min,121 nM,44 nM,37 nM,13.7 min,28.2 min,33 min,110 pM,–,–,–
B8,–,–,–,–,–,–,–,–,–,–,–,–,–,–,–,–,–,–,90 pM,430 pM,"IC50, cell viability of HPAF-II cells, Primary ADC, Continuous (FIG. 22E) [2]: 60 pM; IC50, cell viability of MDA-MB-231 cells, Primary ADC, Continuous (FIG. 22D) [2]: 150 pM; IC50, cell viability of A431 cells, Primary ADC, 4 hr, followed by washout, absence of FVIIa (FIG. 21A) [4]: 240 pM"
B9,–,–,–,–,–,–,–,–,–,–,–,–,–,–,–,–,–,–,60 pM,280 pM,"IC50, cell viability of HPAF-II cells, Primary ADC, Continuous (FIG. 22E) [2]: 50 pM; IC50, cell viability of MDA-MB-231 cells, Primary ADC, Continuous (FIG. 22D) [2]: 140 pM; IC50, cell viability of A431 cells, Primary ADC, 4 hr, followed by washout, absence of FVIIa (FIG. 21A) [4]: 140 pM"
B10,–,–,–,–,–,–,–,–,–,–,–,–,–,–,–,–,–,–,80 pM,360 pM,"IC50, cell viability of HPAF-II cells, Primary ADC, Continuous (FIG. 22E) [2]: 50 pM; IC50, cell viability of MDA-MB-231 cells, Primary ADC, Continuous (FIG. 22D) [2]: 140 pM; IC50, cell viability of A431 cells, Primary ADC, 4 hr, followed by washout, absence of FVIIa (FIG. 21A) [4]: 190 pM"
